Results: publication PMC6102588, “Quaternary Structure, Salt Sensitivity, and Allosteric Regulation of β-AMYLASE2 From Arabidopsis thaliana” (Frontiers in Plant Science, 2018)
Substitutions are numbered along the chain they refer to. In names and notes the source's numbering stands.

B1: Arabidopsis thaliana β-AMYLASE2 (BAM2), wild type, without chloroplast transit peptide (enzyme, UniProt O65258 56-542, looked up)
chain: AESTEEDRVPIDDDDDSTDQLVDEEIVHFEERDFAGTACVPVYVMLPLGVIDMNSEVVEPEELLDQLRTLKSVNVDGVMVDCWWGIVESHTPQVYNWSGYKKLFQMIRELGLKIQVVMSFHECGGNVGDDVHIQIPEWVREIGQSNPDIYFTDSAGRRNTECLTWGIDKQRVLRGRTALEVYFDYMRSFRVEFDEFFEEKIIPEIEVGLGPCGELRYPSYPAQFGWKYPGIGEFQCYDKYLMNSLKEAAEVRGHSFWGRGPDNTETYNSTPHGTGFFRDGGDYDSYYGRFFLNWYSRVLIDHGDRVLAMANLAFEGTCIAAKLSGIHWWYKTASHAAELTAGFYNSSNRDGYGPIAAMFKKHDAALNFTCVELRTLDQHEDFPEALADPEGLVWQVLNAAWDASIPVASENALPCYDREGYNKILENAKPLTDPDGRHLSCFTYLRLNPTLMESQNFKEFERFLKRMHGEAVPDLGLAPGTQETNPE
notes: β-amylase 2 (BAM2), Arabidopsis thaliana, NP_191958.3, lacking its predicted 55 amino acid N-terminal chloroplast transit peptide; the start at residue 56 is worked out from that statement; Expression vector in pETDuet-1; Predicted monomer mass without transit peptide is 57.1 kDa; also called WT BAM2; WT; source: E. coli BL21+, purified by the N-terminal 6-His tag
B2: BAM2 W456A mutant (Interface A) (enzyme, Arabidopsis thaliana, UniProt O65258 56-542, looked up)
chain: B1 chain with W401A
notes: β-amylase 2 (BAM2), Arabidopsis thaliana, NP_191958.3, lacking its predicted 55 amino acid N-terminal chloroplast transit peptide, with Trp456 changed to Ala; Made by QuikChange mutagenesis in the WT pETDuet-1 construct (Monroe et al., 2017); also called B2_W456A; source: E. coli BL21+, purified by the N-terminal 6-His tag
B3: BAM2 F238A mutant (Interface B) (enzyme, Arabidopsis thaliana, UniProt O65258 56-542, looked up)
chain: B1 chain with F183A
notes: β-amylase 2 (BAM2), Arabidopsis thaliana, NP_191958.3, lacking its predicted 55 amino acid N-terminal chloroplast transit peptide, with Phe238 changed to Ala; Made by QuikChange mutagenesis in the WT pETDuet-1 construct (Monroe et al., 2017); also called B2_F238A; source: E. coli BL21+, purified by the N-terminal 6-His tag

Experiments:
[1] = biological target: BAM2 N-terminal deletion mutant (NDel), lacking the acidic region (Arabidopsis thaliana) (UniProt O65258); test: SEC-MALS; proteins at 1-2 mg mL^-1 injected into a 4.6 x 300 mm size-exclusion column, 0.5 mL min^-1, 10 mM MOPS, pH 7, 250 mM KCl; masses are averages, n = 3
[2] = biological target: the molecule itself; test: as above

Molecule	stoichiometry N [1]	stoichiometry N [2]
BAM2 N-terminal deletion mutant (NDel), lacking the acidic region (from UniProt O65258 86-542) (enzyme)	4	–
B1	–	4
B2	–	2
B3	–	2
